Literature values in paper PMC12469268.

Columns and labels:
[1] = target: α1A-adrenoceptor (Homo sapiens) (UniProt P35348); test: 3H-prazosin competition binding
[2] = target: integrin αvβ3 (Homo sapiens) (UniProt P06756)
[3] = target: α2C-adrenoceptor (Homo sapiens) (UniProt P18825)
[4] = target: α2A-adrenoceptor (Homo sapiens) (UniProt P08913)
[5] = target: α2B-adrenoceptor (Homo sapiens) (UniProt P18089)

AdTx1 (from UniProt P85092)
Ki [1]: 0.35 nM

CTX A5 (cardiotoxin A5) (from UniProt P62375)
Kd [2]: 300 nM

ρ-Da1b (from UniProt P86419)
Ki [3]: 38 nM | Ki [4]: 14 nM | Ki [5]: 73 nM
